# Assay results taken from patent CN113045647A (NANJING LEGEND BIOTECH CO LTD, dated 2021).
# B1: 人源Fab抗体AS182561 (Fab, E. coli expression supernatant) (Fab, V domains shown, not shown: large carriers)
# VH: EVQLVESGGGLVQPGGSLRLSCAASGFNIYSSYMHWVRQAPGKGLEWVASISPSYSYTSYADSVKGRFTISADTSKNTAYLQMNSLRAEDTAVYYCARYSYYGMDYWGQGTLVTVSA
# VL: DIQMTQSPSSLSASVGDRVTITCRASQSVSSAVAWYQQKPGKAPKLLIYSASSLYSGVPSRFSGSRSGTDFTLTISSLQPEDFATYYCQQPPWHGLITFGQGTKVEIK
# Biological target: SARS-CoV-2-RBD(6×His融合蛋白，来自金斯瑞生物公司) (SARS-CoV-2, UniProt P0DTC2 319-541)
# Assay: ELISA, E. coli expression supernatant on coated SARS-CoV-2-RBD His
binder,measurement,value
B1,binding result,binds
